From the nanobody polyreactivity screen of Harvey et al. (2022)

Assay: yeast display, Sf9 membrane polyspecificity reagent, FACS + sequencing; frameworks hold sequencing errors
How it was run: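 Synthetic nanobody libraries on Saccharomyces cerevisiae BJ5465 were galactose-induced for 36–48 hours, stained 1 hour at 4 °C with 10% biotinylated, detergent-solubilized Sf9 membrane reagent and enriched on streptavidin microbeads. FACS then separated cells into low and high (top ~1%) gates by anti-HA (expression) and streptavidin (reagent binding) fluorescence. Genes were colony-PCR amplified, MiSeq 2 × 250 sequenced and CDR-length filtered. A clone's polyreactivity label is that of its gate of origin.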

| Sequence | polyreactivity (PSR sort gate) |
| --- | --- |
| QVQLVESGGGLVQAGGSLRLSCADSGSTFEANAMGWYRQAPGKERELVAAISSGGRTYYADSEKGRFTISRDNAKNTVYLKRNSLKPEDTAVYYCAAYVRRGFDWGQGTQVTVSS | high polyreactivity |
| QVQLVESGAGLVQEGGSLRLICAASGRTFRGSDMGWYSPAPGKERELVAAITSGGSTNYADSVKGRFTISRDNAKNTVYLHMNSLKPEDPAVYYCNRDTSKYGLWRYIYDYWGQGTQVNVSS | low polyreactivity |
| QVQLVESGGGLVQAGGSLRLSCAASGRIFYSNVMGWYRQAPGKERELVAAISGRTGGTYYADSVKGRFTISRDNAKNTVYLQMNSLKPEDTAVYYCNAYSLRHHHSDYWGQGTQVTVSS | low polyreactivity |
| QVQLVESGGGLVQAGGSLRLSCAASGRTFSYYAMGWYIQAPGKERELVAAINSSGGRTYYADSVKGRFTISRDNAKNTVYLQMNSLKPEDTAVYYCAARSYSTSSHHGYWGQGTQVTVSS | high polyreactivity |
| QVQLVESGGGLVQAGGSLRLSCAASGSTIRLYAMGWYRQAPGKESELVAAISVSGGSTHYADSVKGRFTISRDNAKNTVYLQMNSLKPEYTAVYYFNAAGNPVSRYHYDYWGQGTQVTVSS | high polyreactivity |
| QVQLVESGGGLVQAGGSLRLTCAASGRIFIGYAMGWYRQAPGKERELVAAISRNGDNTYYADSVKGRFTISRDNAKNTVYLQMISLKPEDSAVYYCAAVAYPRQWKLSYEDGSWGYDYWGQGTQVTVSS | low polyreactivity |
| QVQLVESGGGLVQAGGSLRLSCGASGRTFISNAMGWYRQAPGKERELVATINSGGSTNYADSVKGRFTISRDNAKNTVYLQMNSLKPEDTAVYYCARRVRYKHYDYWGQGTQVTVSS | high polyreactivity |
| QVQLVESGGGLVQAGGSLRLSCAASGRTSSRNAMGWYRQAPGKERELVAAISQSGGSTYYADSVKGRFTISRDNAKNTVYLQMNSLKPEDTAVYYCAKEYKPQSYPTYYNYYYWGQGTQVTVSS | low polyreactivity |
| QVQLVESGGGLVQAGGSLRLSCAASGIIFRYYAMGWYRQAPGKERELVAAITVNGGRTYYADSVKGRFTISRDNAKNNVYLQMNSLKPEVTAVYYCAAYPHRYRVTPYPSVVSLDNYWGQGTQVTVSS | low polyreactivity |
| QVQLVESGGGLVQAGGSLRLSCAASGRIFYYNAMGWYRQAPGKERELVAAITRGGSTYYADSVKGRFTISRDNAKNTVYLQMNCLKPVDTAVYYCAADRPGYSRYTTSVKGQRYYYWGQGTQVTVSS | high polyreactivity |
| QVQLVESGGGLVQAGGSLRLSCAASGITFYKYVMGWYRQAPGKERELVAAISSVGSTYYADSVKGRFTISRDNAKNTVYLQMNSLKPEDTAVYYCNARVYYSTTRYYVRVDYWGQGTQVTVSS | high polyreactivity |
| QVQLVESGGGLVQAGGSLRLSCAASGGIIQGYSMVWYRQAPGKERELVAAISSSGGTTYYADSVKGRFTISRDNAKNTVYLQMNSLKPEDTAVYYCAAPTHSPYDYWGQGTQVTVSS | low polyreactivity |
| QVQLVESGGGLVQAGRSLLLSCAASGRIFDGYAKGRYRQAPGKERELVAAINSNDGTTYYADSVKGRFTISRDKAKHTVYVQMNSLKPEDTAVYYCAKVSYNAWSYGPQMDYWGQGTQVTVSS | low polyreactivity |
| QVQLVESGGGLVQAGGSLRLSCAASGLTLGSYAMGWYRLAPGKERELVAAISRRSGRTYYADSVKGRFTISRDNAKNTVYVQMNSLKPEDTAVYYCNRGYTAQVYTEFDYWGHGTQVTVSS | low polyreactivity |
| QVQLVESGGGLVQAGGSLRLSCAASGSTFVFYTMGWYRQAPGKEREFVASISGSGGSTYYADSVKGRFTISRDNAKNTVYLQMNSLKPEDTAVYYCGAGYPYYYWTPYYYWGQGTQVTVSS | high polyreactivity |
| QVQLVESGGGLVQAGGSLRLSCAASGSIFVYNAMGWYRQAPGKERELVAGITFIGGSTYYADSVKGRFTISRDTAKNTVYLPMNSLKPEDTAVYYRNADGAPGIFYGYDSWGQGTQVTVSS | low polyreactivity |
| QVPLVESVGGLVQAGGSLRISCAASGSTLRGYAMGWYRKAPGKERELVAAISWRGGSTYYADSVKGRFTISRDNAKNTVYLQMNSLKPEDTAVYYCNALVAGHKYYTVTSKYDYWGQGTQLTVSS | high polyreactivity |
| QEQLQESGGGQVQAGGSLLLSCAASGNIIRYYYMGWYRQAPGKERELVAAITYGTSTNYADSVKGRFTISRDNATNTEFLQMNSLKPEDTAVYYCAVDVNYGDPIDNWGQGTQVTVSS | high polyreactivity |
| QVQHVESGGRLVQAGGSLRLSCAPSGFIFSKYAMGWYRQAPGKERELVAAITRSGGRTYYADSVKGRFTISRDNAKNTVYLQMNSLKPEDTAVYYCAASWLYFGRDYWGQGTQVTVSS | high polyreactivity |
| QVQLVESGGGLVQAGVSLSLSCADSGSFSDFYAMGWYRQAPGKERELVAAITSSGGSTYYADSVKGRFTISREIAKNTGYLQMNSLKPEDTAVYYCNRYSNLGYNYWGQGTQVSVSS | high polyreactivity |
| QVQLVESGGALVQAGGSLRLSCAASGITFWKYTMGWYRQAPGKERELVASIRIGGSTYYADSVKGRFTISRDNAKNTVYLQMNSLKPEDTAVYYCATDSRLWGQGTQVTVSS | high polyreactivity |
